Experiment: label from the status in PepcDB records

| Sequence | protein production |
| --- | --- |
| PGQVIGLFGGSFDPPHAGHVHVTREALKMFGLDRVWWLVTPGNPLKAHGPAPLDRRMEAARAMMRHPRVDVTDIEAHLGTRVTADTIAALRRIYPRVRFVWLMGADNLAQLHRWKDWRQIIETVPVGVLARPGDRISARMSPAARAYAPYRIDGQARHLLGRAEAPAWCFVNVPMVDVSSTRIRAAGGWSAAQQGR | failed |
| PAKWKRGRPDILHVALLTTTDSPLYNEGLLRIYFQVYDGRLFEVGTGVRVPKNYERFRGLVAQLLKTERVPPGEGEALIRLHSRSLAEFVEREGRFILMWEKGSPTTTTYVAARALSTGLPIGVGCFPRGEFKRSTLRKASEAYSIMGGAPLKTWGVASRIVYALER | failed |
| MTISADPDRDWKNRISAQALRQIQELDLALDPNSFELWYTFFSGRHKALTEAVNALLAATGRPSAGDISGLYEQFLYPTKAVTRIHAIGALVHSQSNALIDVIEEASDATHGYETRLSSAAPRLALGRMEDGLQTIVDELLTWTMDIQTANAVLVDRLRSAADQVRKLQDQLDQVRLESMTDPLTEVGNRKYFENQLSLHVASDDSGPLALLIVDLDNFKQFNDRHGHVVGDDVLRLAASTIKHNCRRDDVVCRYGGDEFAIILPRTPLREALLLGEAIRAAIAARELHRRSTHESLGRLLISIGAAEFRPGETADDFVERADHWMYAAKQARRDRTRPGPDAAARDPGERRPDILWHETYACGEPTIDAQHRELFDLANVILGPEIEMLEPARLSELVELLLTRVAEHFQYEQAVLEASGYDECGLHRMEHDHLLIRARQVSEAVVSGHQSLGELRAFLVNSVILGHMLKDDRRFFPLFDRQASSATQSGAAPVHRERRRLSL | failed |
| MGLLVILNIVMRIPSIPHEKGYDSFFIHSLANSVANFGVAQWWINWMSVFGLYPYSYASAVPFTLSGMSQLTGIRMEIVILLFCVLLGLFSIFASYSLATVLYDNFLHRFLFAVIFSSSAGTLNLTTWEITTRAQILVFFPFLLYLLFQIIKFKTKFVMLFIVTALLLLATHHFVYMGLFYSGLIFIVALIYKLNRNQPFQIQKTQLRNINLNYMYISSVFFLIILIFLYGSKWGLITSGSRYAWIIDILMITGRNVGLTLLLSIGALIYYIFKKDKLLDEWAILICLIPTLIFSFNQTYGYLTTYLFVTLLGSAGLFNVIKNQKQNRKVVAATVVILIILNITFSTFFVHYRLGIGGGNSEWYMSEETYNTGEWIKENISWDKKAVSNSMQGNRLFASYGGQPVLYRDDISNYMNGFVTLNESKIEKKSPFSKSFYLDNPYVLKSGTTTSGLYSWISQYPITSENSQNFINGNNISYFYDDSLNYNRLFGSLPQSKNSIYNSGRMRIWEN | failed |
| MSLKIAKVEALSVAMGDGTGWMPTSAFVRITAEDGTVGWGEASPMLGGIASLGVVARDIAPFLEGQEVLDHAVLLDRMMHRLVKLGPEGIATAALAACDIALWDLKGKLLGQPIYKLLGGAWRTRLPCYSSIGGNAARSVDEVVREVARRVEAEQPAAVKIRWDGDRTRCDVDIPGDIAKARAVRELLGPDAVIGFDANNGYSVGGAIRVGRALEDLGYSWFEEPVQHYHVGAMGEVAQRLDITVSAGEQTYTLQALKDLILSGVRMVQPDIVKMGGITGMMQCAALAHAHGVEFVPHQTQPGVGHFANIHVLSTLMHMTKPVELADRWDRGRPVFRNPAEPVDGHFALGDAPGLGIVVDEDELASRATEITVGRDQRPPAGGQYEGHHHHHH | not failed |
| MKWILAVGLLSCSVAMAQQQSDILSVSASANAENAALAFDRNVKTMWTIPSQALKAEQWLMFTIQQPGDVCELDLQMQGINKNELKEVLDIFVTYDPMNLGTPVNYRIEGSDKQMKVKFTPKYGAHVKLNFKSGKLDKPFSLKEISVLVAEKVLTDSQGKVTDRRYMDASLPVEERVESLLAVMTPEDKMELIREGWGIPGIPHLYVPPITKVEAVHGFSYGSGATIFPQALAMGATWNRKLTEEVAMVIGDETVAANTKQAWSPVLDVAQDARWGRCEETFGEDPVLVSQIGGAWIKGYQSRGLFTTPKHFGGHGAPLGGRDSHDIGLSEREMREIHLVPFRHAIRNYDCQSLMMAYSDYMGVPVAKSKELLQQILRQEWGFNGFIVSDCGAIGNLTARKHYTAKDKIEAANQALAAGIATNCGDTYNNKEVIQAAKDGRINMEDLDNVCRTMLGTMFRNELFEKNPCKPLDWKKIYPGWNSDSHKEMARQAARESIVMLENKDNLLPLSKTLRTIAVLGPGADDLQPGDYTPKLLPGQLKSVLTGIKGAVGKQTKVLYEQGCDFTNPDETNIPKAVKAASQSDVVIMVLGDCSTSEATNDVRKTCGENNDWATLILPGKQQELLEAVCATGKPVILILQAGRPYDILKASEMCKAILVNWLPGQEGGPAMADVLFGDYNPAGRLPMTFPRHVGQLPLYYNFKTSGRRYEYVDMEYYPLYRFGFGLSYTSFEYSNLKIQEKANGNVEVQATVKNVGSRAGDEVAQLYVTDMYASVKTRVMELKDFARIHLQPGESKTVSFEMTPYDISLLNDRMDRVVEKGEFKIMVGGMSPDYVAKNEIKHSVGYSDNKKGVTGMLNYTHEFGANFDLAVSKVEENLVKNQKTVWVSVKNTGTLMDIGKVEMFVDGKKVGDAVHYELGAGEEKLIPFKLAKENKQPVAFTTKYKMVSM | failed |
| SAWALKLPLADEVIESGLVQDFDASLSGIGQELGAGAYSMSDVLALPIFKQEESSLPPDNENKILPFQYVLCAATSPAVKLHDETLTYLNQGQSYEIRMLDNRKLGELPEINGKLVKSIFRVVFHDRRLQYTEHQQLEGWRWNRPGDRILDIDIPMSVGIIDPRANPTQLNTVEFLWDPAKRTSVFIQVHCISTEFTMRKHGGEKGVPFRVQIDTFKENENGEYTEHLHSASCQIKVFKPKGADRKQKTDREKMEKRTPHEKEKYQPSYETTILTECSPWPEITYVNNSPSPGFNSSHSSFSLGEGNGSPNHQPEPPPPVTDNLLPTTTPQEAQQWLHRNRFSTFTRLFTNFSGADLLKLTRDDVIQICGPADGIRLFNALKGRMVRPRLTIYVCQESLQLREQQQQQQQQQQKHEDGDSNGTFFVYHAIYLEELTAVELTEKIAQLFSISPCQISQIYKQGPTGIHVLISDEMIQNFQEEACFILDTMKAETNDSYHIILK | failed |
| MSANDKLTILWTTDNKDTVFNMLAMYALNSKNRGWWKHINIILWGASVKLVANDTQVQTEILEMLQSGITIEACQDCCENFGVASIITNLGITVRYMGIPLTEYLKNGEKILSI | not failed |
| MMHYGVLALTFLSVNLDFFLMLVFLLKKYRLWQVLLGYLLGNLILLTASFFVGKALTLFLPEWLLGFLGVLPIWLAFHDDDDDTADRAGGSPVINVLVTYLAVCAGCNLSIFLPVLVGESMVHFVMTLGFIGILTMLVVLIINQVAEIKAVQKQIAAHGERLMKICYVVIGLYVFWDSGLISHLIAFL | failed |
| MGFHLRGNNDFAFKRLYINLPQNSQMRAQLRRLIDNGSDTVVVSDKQDADAFLDVLSENRVKTISSLTPQGVVREYRITYRFSFQLRDAHDNLLIPPSEITLFRDLSYNETQVLAKDYEEAALYRDMQGDIVNQLVRRLASVRLPSLEHHHHHH | not failed |
| MTFEEFKDRLFALAKKNGVEVQISFLETREFSLRLANGDLDQYTDAGKFNVEIKVLKDGKTGTFRTQVLENPEKCFEEALSNLQVKDSEEKEYFFEGGKEYREMETYVGRFEKLSVKEKMDMAKKAHESAAKDERVVMVPTVMYKDMVIKKIITNTLGLDVESQMDGGFLFAMAIARDANPRSGSWYELARTPEDLNPEEIGKRAAEEAISLIGSKTIPSGKYPVLMRNTALLDLMEMFIPMISAENVQKNLSPLKGKLGEQVGNPAVSIKDLPYHPKGLSSTPFDDEGVPTTEKFVLENGVLKTFLHNLKTARKEGVEPTGNGFVGGIRPVNLMLMPGEKSFEELLKEMDRGVVITEVEGMHAGANSISGEFSLFAKGYWVENGEIAHGVEDITISGNFLDLLRKIVLVGNDVKVSQHTIAPSVLVEVLDVAGK | not failed |
| MSQNLQETSQAYPRHRPGSHAGPKSLKVTPRATMYTFLPDNFSPAKPKPTKELRPLLCSAVLGLLLVLAAVVAWCYYSASLRKAERLRAELLDLNRGGFSIRNQKGEQVFRLAFRSGALDLDSCSRDGALLGCSRAADGRPLHFFIQTVRPKDTVMCYRVRWEEAVPGRAVEHAMFLGDAAAHWYGGAEMRTQHWPIRLDGQQEPQPFVTSDVYSSDAAFGGILERYWLSSRAAAIKVNDSVPFHLGWNSTERSMRLQARYHDTSYKPPAGRTAAPELSYRVCVGSDVTSIHKYMVRRYFNKPSRVPASEAFRDPIWSTWALHGRAVDQNKVLQFAQQIRQHRFNSSHLEIDDMYTPAYGDFNFDEGKFPNASDMFRRLRDAGFRVTLWVHPFVNYNSSSFGEGVERELFVREPTGRLPALVRWWNGIGAVLDFTHPEAREWFQGHLRRLRLRYNVTSFKFDAGEVSYLPRDFSTYRPLSDPSVWSRRYTEMAEPFFSLAEVRVGYQSQNISCFFRLVDRDSVWGYDLGLRSLIPAVLTVSMLGYPFILPDMIGGNAVPERTAGRQDGPGPERELYVRWLEVAAFMPAMQFSIPPWQYDAEVVAIAHKFAALRASLVAPLLLELAGEITDTGDPIVRPLWWIAPGDETAHRIDSQFLIGDTLLVAPVLEPGKQERDVYLPAGKWRSYKGELFDKTPVLLTDYPVDLDEVAYFTWAS | failed |
| MGLNKEAVKIGFAYVGIVVGAGFSTGQEVMQFFSPYGLWSYIGVILSGLILGFIGRQVAKIGTAFDAQNHESTLDYLFGNKFSKIVDYLLIFFLFGISVTMLAGAGSTFEESFGVPTWLGALIMVIVIYITLLMDFNKIVRALGVVTPFLIILVVIIAAYYLFNGSISFGEVNDAVPDASLVKGILYGINYGGLAFAVGFSTIVAIGGDASRRRVSGAGALFGGIVYTILLALINFALQSEFTKIEDASIPMLTLANDIHPWIGLVLSIIMLAVMYNTILGLMYSFAARFTEPYSKKYHIFIVVMVIVAFALSFVGFAGLINFLYPIMGVVGLVVVIGVLVKYYSRKRQNKKFIA | failed |
| MVPDYFSASEWTIIADVLGANSRHLFELYALKQSNHYQSLMGSKAGTFEDIVDAYLAYLQVAVVNPAMDKALLRLQRYATDVRKGSIPYEKLRFGASWRHPPQTEDPTQNSEWAKIQLMDFVQALVNTEFAVGILYTQRDPSFFRPISQGIKRCLVRWNVDEISVSCARTHVGLRFYREVENIKGRCFCCRQGLTFSKITLRRDVGGKNLQLQNGVIVTTDRSSLQRLKQKPDLIYGIWERPHGFNLRSVQENNEHNN | failed |
| MGLRALSASVNAFECEKQHGDPKSMRINSVPGGRPPRDGRPSRAGALFGCSSAEALYFGSECRPGPSARRFGDNRAHSSLTYWCGMNTFDFGFDDSEDSPHEDPLEDLVAAYENDPSAYFDSGDLEEIASFYFEEGEMETALEVIDRLIELHPYTSDAWMRRGILLNNLGRPEEALEAYEQALDVNPTDTETLINLGITLDSLGRVDEALEAYDEALSINPLHGEALFNLGVTLERDEQLEAAVEAFQRCADVYPEHPEVWYELGYCYDRLGEDEKSVEAYDNHLDIDPYSKDAWYNRGIVLNRLGRFGEAVESYDMALAIHDEFASAYYNRGNAEANQGDLEAAVESYERVLELEGPDAATYYNLALAYEEQGDLRAARTYYEKTLDLKSNYPEAWYGLGCCFDTDERPEEALECFRYAVNLDANVPKFWTARADCAYKVGKLDEALESYQHAVRLDESNEHAWTGYAETLLEKEQPEEALEAYRQALELDPKSANTYFRQAKALLALGRADESIRALKTAFRLDPAKKEEFQKAYPTLYDNDRVRRLLDLDS | failed |
| MKRADIKRRPLADTTLTGLEPEAKEYRELDGNGLYFRVKPDGGKSWQLRYKRPAGNWAWMGLGGYPEVSGALAREKAAELRKTISSGIDPLEQKRSAKAAIDAAKTRTFRAAADAWLKAKEEKGLAPSTLNKIRTYLDKDILPALGDKPLDEITRTDCAELQASIEARDAHNVAEKCRTWINQIFGRAIGLGLTENDPGSRLRDIAAQAPKTQQHPHLLEPELGEFLTALKNTPSRLTARTAAWLCIWTASRPGMVRLAEWKEFDLDKATWTTPAAKMKMRRDFVCPLPHQAIAALKELHCLTGRSRWLFPGVGAKNPTISENTINKVFATIGYKGRLVGHGTRHTASTLLREHGWPKEHVEAQLAHKEEGISGVYNKAQYLEQRITMMQWYADHLDALEQGKVIQGQFGKAL | failed |

Source: a protein production outcome set (Wang et al. 2014)
